According to publication PMC11843895, “Single-Molecule Nanopore Sequencing of the CpG Island from the Promoter of O6-Methylguanine-DNA Methyltransferase Provides Insights into the Mechanism of De Novo Methylation of G/C-Rich Regions”:

Legend:
Dnmt3a-CD [1] = molecular target: T1, Dnmt3a-CD (UniProt O88508 608-908); experiment: BLI; 100 uM AdoHcy; BLI: 20 mM HEPES-NaOH pH 7.5, 100 mM KCl, 1 mM EDTA, 0.2 mM DTT, 100 uM AdoHcy, 5% glycerol, 0.02% Tween-20, 0.5 mg/mL BSA, 25 C; inhibition: buffer A (20 mM HEPES-NaOH pH 7.5, 100 mM KCl, 1 mM EDTA, 1 mM DTT) with 25 uM AdoMet, 37 C; FP: buffer A; details: protein: recombinant, tags: N-terminal 6xHis, chain copies: 2
Dnmt3a-CD [2] = molecular target: T1, Dnmt3a-CD; experiment: competition (inhibition of methylation); 300 nM MGMT-ds1-f substrate, 2 uM enzyme, 25 uM AdoMet; BLI: 20 mM HEPES-NaOH pH 7.5, 100 mM KCl, 1 mM EDTA, 0.2 mM DTT, 100 uM AdoHcy, 5% glycerol, 0.02% Tween-20, 0.5 mg/mL BSA, 25 C; inhibition: buffer A (20 mM HEPES-NaOH pH 7.5, 100 mM KCl, 1 mM EDTA, 1 mM DTT) with 25 uM AdoMet, 37 C; FP: buffer A; details: protein: recombinant, tags: N-terminal 6xHis, chain copies: 2

T1 sequence (O88508 608-908): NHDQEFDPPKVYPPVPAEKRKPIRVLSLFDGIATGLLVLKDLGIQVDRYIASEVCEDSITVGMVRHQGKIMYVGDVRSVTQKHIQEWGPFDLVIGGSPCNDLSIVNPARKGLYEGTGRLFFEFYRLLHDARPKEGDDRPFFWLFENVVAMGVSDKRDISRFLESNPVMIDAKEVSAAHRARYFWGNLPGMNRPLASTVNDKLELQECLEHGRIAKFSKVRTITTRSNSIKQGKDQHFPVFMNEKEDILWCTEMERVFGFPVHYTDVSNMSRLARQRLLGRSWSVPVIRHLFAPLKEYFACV

B1: MGMT-ds1-bio (dsDNA)
DNA 1: GGTCCTGCAGGCGCCCTCACTT
DNA 2: AAGTGAGGGCGCCTGCAGGACC
Kd (Dnmt3a-CD [1]; label: 5' biotin on strand 1, blunt): 65 ± 2 nM

GGGCCGGGGCGCGCGGGGGCGGAG (structured_DNA) [MGMT-G4-bio]
Kd (Dnmt3a-CD [1]; label: 5' biotin, G4, mixed hybrid (CD of unlabeled MGMT-G4)): 14 ± 0.4 nM

GTGCCGGAGCGCGCGGAGGCGGAG (ssDNA) [MGMT-G4-mut]
IC50 (Dnmt3a-CD [2]; no G4 by CD): 590 ± 90 nM

CTGAATACTACTTCCTACCCCTTACCTGAT (ssDNA) [non-specific control (no CpG)]
IC50 (Dnmt3a-CD [2]): 2400 ± 700 nM

B2: MGMT-ds2-bio (dsDNA)
DNA 1: CTCCGCCCCCGCGCGCCCCGGCCC
DNA 2: GGGCCGGGGCGCGCGGGGGCGGAG
Kd (Dnmt3a-CD [1]; label: 5' biotin on strand 1 (C-rich), blunt): 15 ± 0.5 nM

GGGCCGGGGCGCGCGGGGGCGGAG (structured_DNA) [MGMT-G4]
IC50 (Dnmt3a-CD [2]; G4, mixed hybrid (CD)): 610 ± 30 nM

CTCCGCCCCCGCGCGCCCCGGCCC (ssDNA) [MGMT-C-bio]
Kd (Dnmt3a-CD [1]; label: 5' biotin): 211 ± 21 nM
